Biological target: the molecule itself
Experiment: SEC; gel filtration of total protein extracts from brain tissue of WT mice; GLB1 and NEU1 enzymatic activities measured in the eluted fractions

B1: β-galactosidase (GLB1), mouse brain (enzyme, mouse (endogenous in brain tissue), UniProt P23780 30-647, looked up)
chain: QRTFKLDYSRDRFLKDGQPFRYISGSIHYFRIPRFYWEDRLLKMKMAGLNAIQMYVPWNFHEPQPGQYEFSGDRDVEHFIQLAHELGLLVILRPGPYICAEWDMGGLPAWLLEKQSIVLRSSDPDYLVAVDKWLAVLLPKMKPLLYQNGGPIITVQVENEYGSYFACDYDYLRFLVHRFRYHLGNDVILFTTDGASEKMLKCGTLQDLYATVDFGTGNNITQAFLVQRKFEPKGPLINSEFYTGWLDHWGKPHSTVKTKTLATSLYNLLARGANVNLYMFIGGTNFAYWNGANTPYEPQPTSYDYDAPLSEAGDLTKKYFALREVIQMFKEVPEGPIPPSTPKFAYGKVALRKFKTVAEALGILCPNGPVKSLYPLTFTQVKQYFGYVLYRTTLPQDCSNPKPIFSSPFNGVRDRAYVSVDGVPQGILDRNLMTALNIRGKAGATLDILVENMGRVNYGRFINDFKGLISNMTINSTVLTNWTVFPLNTEAMVRNHLWGREASDEGHLDGRSTSNSSDLILPTFYVGNFSIPSGIPDLPQDTFIQFPGWSKGQVWINGFNLGRYWPTMGPQKTLFVPRNILTTSAPNNITVLELEFAPCSEGTPELCTVEFVDTPVIS
notes: β-galactosidase (GLB1), mouse, endogenous in brain extracts; detected by its enzymatic activity in gel-filtration fractions; Eluted both in the ~1,200 kDa LMC peak and as a 240 kDa tetramer; also called lysosomal β-galactosidase; source: endogenous, total protein extracts from mouse brain tissue
- stoichiometry N: 4
